In general, stoichiometry N refers to a count of units in the complex or per binding partner.

One substance from publication doi:10.1101/2022.05.03.490496 can be followed below.

This assay deals with amino-terminal ∼1400 amino-acid segment of human MUC2 (human). The assay can be described thus: western blot of disulfide-bonded dimers. In general terms: A western blot detects proteins with antibodies after separation by electrophoresis.

The substance “amino-terminal ∼1400 amino-acid segment of human MUC2 (domain or fragment)” came in with a stoichiometry N of 2.
